The results in this text go back to patent US11820970B2, “High throughput protein-protein interaction screening in yeast liquid culture” (University of Washington, priority 2016, dated 2023).

Holding throughout (test): Batched (one-pot) yeast mating assay, barcode sequencing
Format in all cases: cell-based

For one test, the target named is T1, Bfl1 (Homo sapiens, UniProt Q16548).
T1 sequence (Q16548 1-175): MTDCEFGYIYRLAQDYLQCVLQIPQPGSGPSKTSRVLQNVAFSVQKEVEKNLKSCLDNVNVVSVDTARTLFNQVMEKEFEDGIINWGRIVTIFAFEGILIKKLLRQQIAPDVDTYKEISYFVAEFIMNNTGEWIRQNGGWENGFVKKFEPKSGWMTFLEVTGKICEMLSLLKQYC
Particulars: vs Bfl1. The procedure: (§1) For a many-to-many (also see Example 6) batched mating assay, multiple haploid yeast strains of each mating type are combined in a fresh 3 mL YPD culture. The recombinant MATa yeast strains are added in equal concentrations for a total density of 100 cells/μL and the recombinant MATalpha yeast strains are added in equal concentrations for a total density of 600 cells/μL. After 6 hours of growth, hygromycin is added at 100 ng/μL and β-estradiol (PE) is added at 200 ng/μL. 20 hours after the initial culture inoculation, 1 mL of cells are pelleted. 2 μL of cells are removed from the pellet, lysed with 0.2% SDS, spun down to remove all cellular debris, and diluted in water. The lysate is then used as a template for a PCR with standard primers containing overhangs for next generation sequencing and the PCR product, expected to be 650 bases, is purified from a gel slice. Paired-end next generation sequencing is then performed. The frequency that a particular pair of barcodes is observed relative to the total number of reads provides a relative measure for the number of matings that were caused by the SAP pair associated with those two particular barcodes.
(§2) LIBRARY MATING ASSAYS: For library mating assays in which each isogenic strain was constructed individually and the barcode associated with each synthetic adhesion protein was determined with Sanger sequencing, one or both of the isogenic haploid strains from a one-to-one mating were replaced with a library of strains, all of the same mating type, displaying unique barcoded synthetic adhesion proteins. Each haploid strain in the library is individually grown to saturation, evaluated for surface expression strength as described previously, and mixed in equal volumes. 2.5 μL, if a MATa library, or 5 μL, if a MATalpha library, were then added to a mating as before. Following a 17 hour incubation, 100 μL were added to 50 mL of YPD with […] hygromycin and 100 nM β-estradiol (many-to-many matings only). After growing to saturation, cells were harvested by centrifugation, and lysed by heating to 70° C. for 5 min in 200 mM LiOAc and 1% SDS. Cellular debris was removed and incubated at 37° C. for 4 hours with 0.05 mg/mL RNase A. An ethanol precipitation was then performed to purify and concentrate the genomic DNA. A primary qPCR is performed to amplify the barcode region with standard adaptors and the PCR product is used as a template for a secondary qPCR to attach an index barcode and standard Illumina adaptors. This fragment is gel extracted, quantified with a Qubit and analyzed on a MiSeq next generation sequencer.
(§3) One-pot protein library characterization. A barcoding and recombination scheme was developed for the analysis of whole protein interaction networks in a single pot. Single MATa and MATα parent strain, yNGYSDa and yNGYSDα, were constructed and barcoded SAP cassettes were transformed into the strains. In addition to the knockout of Sag1 in both parent strains and complementary lysine and leucine markers, yNGYSDa contains a CRE recombinase expression cassette with an inducible promoter, pZ4. yNGYSDα constitutively expresses ZEV4, an activator of the pZ4 promoter with an estradiol binding domain for nuclear localization. SAP cassettes were assembled in one of two standardized vectors, pNGYSDa or pNGYSDα, for integration into the corresponding yeast parent strain. In addition to the surface expression cassette, each vector backbone contains a mating type specific florescent reporter cassette, a randomized ten-nucleotide barcode, a mating type specific primer binding site, and a lox recombination site. Upon mating, the addition of β-Estradiol (βE) induces CRE recombinase expression in diploid cells, consolidating the barcodes from each haploid chromosome so that next-generation sequencing can be used to count the frequency of interacting SAP pairs (FIG. 16A). […]

The next test addresses Bcl2 (Homo sapiens, UniProt P10415). As to conditions: vs Bcl2. The procedure:
as §1, §2, §3

A further test addresses T2, BclW (Homo sapiens, UniProt Q92843).
T2 sequence (Q92843 1-193): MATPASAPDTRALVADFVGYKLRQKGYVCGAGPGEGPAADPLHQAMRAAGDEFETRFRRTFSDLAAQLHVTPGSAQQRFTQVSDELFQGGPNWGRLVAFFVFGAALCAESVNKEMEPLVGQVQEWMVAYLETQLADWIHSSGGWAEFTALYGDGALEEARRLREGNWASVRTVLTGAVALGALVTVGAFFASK
As to conditions: vs BclW. The procedure: as §1, §2, §3

Chain of Bcl2 (P10415 whole entry, species assumed): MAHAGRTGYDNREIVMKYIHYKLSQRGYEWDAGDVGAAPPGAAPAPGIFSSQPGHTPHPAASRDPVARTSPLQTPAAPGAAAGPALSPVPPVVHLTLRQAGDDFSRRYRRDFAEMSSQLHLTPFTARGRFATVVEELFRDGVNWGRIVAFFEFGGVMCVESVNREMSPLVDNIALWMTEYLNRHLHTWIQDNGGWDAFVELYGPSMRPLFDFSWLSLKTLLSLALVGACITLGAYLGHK

With “Noxa: natural BH3 domain peptide binder of Bcl2 family proteins (PAELEVECATQLRRFGDKLNFRQKLL)”, the “binding in batched mating (interaction profile, in words)” value (shortened to “binding in batched mating”) with Bfl1 is recorded as “high specificity”.

On to “Bim: natural BH3 domain peptide binder of Bcl2 family proteins”, for which the “binding in batched mating” value in the test with Bcl2, with BclW and with Bfl1 was “nonspecifically” throughout.

For the substance “Puma: natural BH3 domain peptide binder of Bcl2 family proteins (EEQWAREIGAQLRRMADDLNAQYERR)”, the “binding in batched mating” value with Bcl2, in the test with BclW and with Bfl1 was “nonspecifically” in each case.
